From patent US20110244498

Tested on: non-phosphorylated pKID-Abl

Abl tyrosine kinase (New England Biolabs)
conversion of non-phosphorylated pKID-Abl to phosphorylated pKID-Abl (analytical HPLC, 30 min at 37 C, 300 units Abl): 62% conversion of non-phosphorylated pKID-Abl to phosphorylated pKID-Abl in the absence of Gleevec | conversion of non-phosphorylated pKID-Abl to phosphorylated pKID-Abl in the presence of 50 µM Gleevec (analytical HPLC): less than 5% conversion was observed in the presence of Gleevec | terbium luminescence after incubation with kinase: resulted in a significant increase in terbium luminescence
